Test [1] has as its target T1, human PCSK9 (human, UniProt Q8NBP7 31-692, biotinylated in the ELISA (site not stated)). The test can be described thus: cell-based or functional assay.
For test [2], the target named is T1, human PCSK9. The test can be described thus: ELISA: biotinylated human PCSK9 on Neutravidin plates, antibody dilution series, anti-human IgG Fc-HRP, OD450. In general terms: ELISA stands for enzyme-linked immunosorbent assay.
The next test has as its target T2, human CGRP alpha (human, UniProt P06881 83-119, N-terminally or C-terminally biotinylated (the two ELISAs were run separately)).
T2 construct: Bought peptide; N- and C-terminally biotinylated forms were captured on neutravidin plates; also called HuCGRP alpha; CGRPα
T2 peptide (looked up): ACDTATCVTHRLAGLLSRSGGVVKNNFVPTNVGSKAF
The test can be described thus: ELISA: biotinylated human CGRP alpha on neutravidin plates (the sheet does not say whether N- or C-terminally biotinylated), antibody dilution series, OD450.

The next test concerns the target T3, human beta-NGF (human, UniProt P01138 122-241, limits assumed, biotinylated in the ELISA (site not stated)).
T3 construct: Biotinylated and captured on Neutravidin plates in the ELISA; Used unlabelled in the TF1 proliferation assay; also called hu B-NGF; huB-NGF
The experiment in a line: ELISA: biotinylated hu B-NGF on Neutravidin plates, antibody dilution series, anti-human IgG Fc-HRP, OD450.

This is an account of results in patent publication US20140287952A1 (ALDERBIO, published 2014).

T1 sequence (Q8NBP7 31-692 limits assumed): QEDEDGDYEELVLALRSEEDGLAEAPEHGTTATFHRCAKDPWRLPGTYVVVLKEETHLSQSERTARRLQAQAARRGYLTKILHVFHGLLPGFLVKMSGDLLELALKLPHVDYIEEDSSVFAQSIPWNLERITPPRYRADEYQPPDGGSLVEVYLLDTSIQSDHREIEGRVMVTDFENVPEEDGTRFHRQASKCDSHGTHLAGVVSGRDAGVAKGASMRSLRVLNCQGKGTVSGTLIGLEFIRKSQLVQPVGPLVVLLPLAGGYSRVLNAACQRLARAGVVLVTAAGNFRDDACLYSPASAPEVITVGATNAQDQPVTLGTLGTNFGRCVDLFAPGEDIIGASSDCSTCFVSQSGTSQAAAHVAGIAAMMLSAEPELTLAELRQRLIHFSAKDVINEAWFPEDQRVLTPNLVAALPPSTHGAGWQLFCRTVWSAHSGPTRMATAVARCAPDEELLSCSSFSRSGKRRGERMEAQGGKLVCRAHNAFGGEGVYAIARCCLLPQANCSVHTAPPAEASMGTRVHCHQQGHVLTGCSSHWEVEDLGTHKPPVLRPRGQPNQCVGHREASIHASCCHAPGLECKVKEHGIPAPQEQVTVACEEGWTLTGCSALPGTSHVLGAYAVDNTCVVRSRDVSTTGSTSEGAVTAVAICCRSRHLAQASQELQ
T3 sequence (P01138 122-241 limits assumed): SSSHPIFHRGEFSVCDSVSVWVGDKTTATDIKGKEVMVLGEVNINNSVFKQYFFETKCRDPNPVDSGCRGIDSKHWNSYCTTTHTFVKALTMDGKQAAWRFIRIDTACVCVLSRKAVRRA

B1: Ab2 (antibody, V domains shown)
VH: SVEESGGRLVTPGTPLTLTCTVSGFSLSSYAMSWVRQAPGKGLEWIGIIDAIDNTYYASWAKGRFTISKTSTTVDLKMTSLTTGDTATYFCARASILGYSIATGFNIWGPGTLVTVSS
VL: AYDMTQTPASVEVAVGGTVTIKCQASQSISSHLAWYQQKSGQPPKLLIYRASTLESGVSSRFKGSGSGTEFTLTISDLECADAATYYCQQGYGVSDVDNGFGGGTEVVVK
In general, EC50 refers to the concentration at which the effect is half-maximal. The low end stands for an effect from little substance, the high end for a need for much substance. For B1, in the test with human PCSK9 [1], the “IC50; LDL uptake assay: BODIPY-LDL uptake (RFUs) by HepG2 cells, antibody pre-incubated with 3 µg/mL PCSK9; RFUs rise with the antibody concentration” value worked out at 17.3 nM. Besides, in the test with human PCSK9 [2], the EC50 is 0.174 nM.

B2: Ab4 (antibody, V domains shown)
VH: QSLEESGGRLVTPGTPLTLTCSVSGIDLSGYYMNWVRQAPGKGLEWIGVIGINGATYYASWAKGRFTISKTSSTTVDLKMTSLTTEDTATYFCARGDIWGPGTLVTVSS
VL: QVLTQTPSPVSAAVGSTVTINCQASQSVYHNTYLAWYQQKPGQPPKQLIYDASTLASGVPSRFSGSGSGTQFTLTISGVQCNDAAAYYCLGSYDCTNGDCFVFGGGTEVVVKR
As for B2, the midpoint of the response with human CGRP alpha, the EC50, lay at 0.159 nM.

B3: Ab8 (antibody, V domains shown)
VH: QVQLVESGGGVVQPGRSLRLSCAASGFTFSSYAMIWVRQAPGKGLEYIGYIDTDTSAYYASSVKGRFTISRDNSKNTLYLQMSSLRAEDTAVYYCARSYAAYGGYPATFDPWGQGTLVTVSS
VL: DIQMTQSPSSLSASVGDRVTITCQASEDIYNLLAWYQQKPGKVPKLLIYSASTLASGVPSRFSGSGSGTDYTLTISSLQPEDVATYYCQNNYLVTTYGVAFGGGTKVEIK
B3: the EC50 in the test with human beta-NGF came out at 0.254 nM.

B4: Ab7 (antibody, V domains shown)
VH: QEQLKESGGRLVTPGTPLTLTCTVSGFSLSSYAMIWVRQAPGKGLEYIGYIDTDTSAYYASWVKGRFTISRTSTTVDLKITSPTTEDTATYFCARSYAAYGGYPATFDPWGPGTLVTVSS
VL: DVVMTQTPASVSQPVGGTVTIKCQASEDIYNLLAWYQQKPGQPPKLLIYSASTLASGVPSRFKGSGSGTEYTLTISGLECADAATYYCQNNYLVTTYGVAFGGGTEVVVK
As to B4, the EC50 with human beta-NGF was found to be 0.182 nM.

B5: Ab3 (antibody, V domains shown)
VH: EVQLVESGGGLVQPGGSLRLSCAVSGLDLSSYYMQWVRQAPGKGLEWVGVIGINDNTYYASWAKGRFTISRDNSKTTVYLQMNSLRAEDTAVYFCARGDIWGQGTLVTVSS
VL: QVLTQSPSSLSASVGDRVTINCQASQSVYDNNYLAWYQQKPGKVPKQLIYSTSTLASGVPSRFSGSGSGTDFTLTISSLQPEDVATYYCLGSYDCSSGDCFVFGGGTKVEIKR
Take B5: in the test with human CGRP alpha, the EC50 stood at 0.127 nM.
